# Values of other authors, collected in article PMC4610412.
# Molecular target: pCdc25C (Homo sapiens) (UniProt P30307)
# Experiment: ITC
# pCdc25C (Homo sapiens), sequence (P30307 2-473): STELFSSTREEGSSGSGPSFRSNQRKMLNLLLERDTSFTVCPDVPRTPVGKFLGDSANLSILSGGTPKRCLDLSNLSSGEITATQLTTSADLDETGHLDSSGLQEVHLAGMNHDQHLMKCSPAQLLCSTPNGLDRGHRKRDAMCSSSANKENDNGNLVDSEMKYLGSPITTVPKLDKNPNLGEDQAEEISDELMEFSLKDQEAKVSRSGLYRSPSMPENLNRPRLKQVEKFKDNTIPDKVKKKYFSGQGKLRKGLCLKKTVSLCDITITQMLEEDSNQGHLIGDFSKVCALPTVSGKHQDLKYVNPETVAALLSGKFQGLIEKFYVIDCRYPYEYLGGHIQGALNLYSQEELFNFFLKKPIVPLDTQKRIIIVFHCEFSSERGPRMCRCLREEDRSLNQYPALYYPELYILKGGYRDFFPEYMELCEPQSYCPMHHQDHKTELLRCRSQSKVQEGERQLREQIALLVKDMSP
# Pin1 WW, sequence (Q13526 2-42): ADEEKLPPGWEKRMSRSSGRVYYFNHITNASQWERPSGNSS
# Pin1 PPIase, sequence (Q13526 52-163): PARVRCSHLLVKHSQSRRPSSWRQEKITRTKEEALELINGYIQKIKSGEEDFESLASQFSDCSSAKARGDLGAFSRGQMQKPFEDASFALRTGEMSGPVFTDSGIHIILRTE
row,Substance,Kd [µM]
1,Pin1 WW (from UniProt Q13526),13
2,Pin1 PPIase (from UniProt Q13526),1000
